Measured values from US20110311550A1 (Scripps Research, published 2011).

Columns and labels:
Assay in all cases: ELISA, lectin-captured E1E2 lysate, Ab 1 ug/ml;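 note: E1E2 captured on Galanthus nivalis lectin-coated plates, bound test antibody read out by an HRP-linked secondary antibody and TMB colour development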
[1] = target: E1E2 complex (H77) with E1 mutation N196A (HCV genotype 1a, isolate H77, UniProt P27958 192-383; P27958 384-746)
[2] = target: E1E2 complex (H77) with E1 mutation Y309A (HCV genotype 1a, isolate H77, UniProt P27958 192-383; P27958 384-746)
[3] = target: E1E2 complex (H77) with E1 mutation N196A/N325A (HCV genotype 1a, isolate H77, UniProt P27958 192-383; P27958 384-746)

B1: N4 IgG (antibody, V domains shown)
VH: VQLLEQSGPEVKKPGDSLRISCKMSGDSLVTTWIGWVRQKPGQGLEWMGIINPGDSSTNIYPGDSATRYGPSFQGQVTISIDKSTSTAYLQWNNVKASDTGIYYCARHVPVPISGTFLWREREMHDFGYFDDWGQGTLVIVSS
VL: ELTLTQSPGTLSLSPGERATLSCRASQSVSNNYLAWYQQKPGQAPRLLIYGASSRATGIPDRFSGSGSGTGFTLIISRLEPEDFAVYYCQQYGSSSITFGQGTRLEIKR
notes: also called IgG N4
Binding relative to wt (%) [1]: 52%
Binding relative to wt (%) [2]: 32%
Binding relative to wt (%) [3]: 54%
